This note sets out measurements from US10556007B2, “Antibody which binds Lrg1 and methods of use” (UCL Business PLC, priority 2015, dated 2020).

Series [1] has as its system laser-induced choroidal neovascularisation. The experiment in a line: Rat laser-induced choroidal neovascularisation (CNV). It counts as in vivo. As to conditions: Long Evans rats, intravitreal at time of lasering, analysis 7 days later. The protocol: Several antibodies were tested for their ability to block CNV in the rat. In these experiments mAbs were injected intravitreally at the time of lasering, with eyes being retrieved for analysis 7 days later (FIG. 5). Long Evans rats, aged 6-8 weeks, each received 5 retinal laser burns at the same time as intravitreal delivery of […] mAb or control IgG into both eyes. Four rats were used for each mAb, so a total of 40 lesions were analysed by staining for collagen IV and the neovascular areas quantified. […] Avastin was also tested in the rat laser model (data not shown) and observed to have no effect, consistent with Avastin having low affinity for rat VEGF.

In series [2] the target is T1, human Lrg1 (Homo sapiens, UniProt P02750).
T1 sequence (P02750 36-347): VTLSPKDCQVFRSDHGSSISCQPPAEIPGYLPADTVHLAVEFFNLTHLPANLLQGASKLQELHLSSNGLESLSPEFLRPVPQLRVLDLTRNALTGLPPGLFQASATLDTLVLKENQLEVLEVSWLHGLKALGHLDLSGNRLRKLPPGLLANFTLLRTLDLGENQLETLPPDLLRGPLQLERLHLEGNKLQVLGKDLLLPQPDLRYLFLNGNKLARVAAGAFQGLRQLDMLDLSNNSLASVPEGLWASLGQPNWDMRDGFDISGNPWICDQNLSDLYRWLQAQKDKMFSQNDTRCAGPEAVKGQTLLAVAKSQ
The series is described as follows: Anti-human Lrg1 competition ELISA against biotinylated mouse 15C4. It counts as binding. Set-up: made in house. As to conditions: competition with biotinylated mouse 15C4. As for the experimental part:
The chimeric antibody was expressed transiently in HEK EBNA cells and stably in NS0 mouse myeloma cells, purified and tested for binding to human Lrg1 in a competition ELISA assay. A Nunc Immuno MaxiSorp 96 well flat bottom microtitre plate (Fisher, cat. no. DIS-971-030J) was pre-coated with 0.2 μg/ml hLrg1 (supplied by UCL) overnight in 0.1 N Sodium Carbonate buffer (NaHCO3) at +4° C. The following day the plate was washed 1× with PBST and blocked with 3% BSA/PBS for 1 hour at room temperature. After washing 3× with PBST, a three-fold dilution series of chimeric, mouse or control antibodies from 100 μg/ml to 0.13 μg/ml was premixed with a constant concentration of biotinylated mouse 15C4 (0.4 μg/ml, final concentration), added to the plates and incubated for 1.5 hours at room temperature. Following 3×PBST washes, the binding of the biotinylated mAb was detected with streptavidin-HRP (Sigma, cat. no. 55512) and TMB substrate (Invitrogen, cat. no. 00-2023). The reaction was stopped with 3 M HCl, absorbance read at 450 nm on a Dynex Technologies MRX TC II plate reader and the binding curves plotted.
The properties of Magacizumab were investigated. […] An anti-hLrg1 competition ELISA was carried out. […] Bound biotinylated mouse 15C4 was detected using streptavidin-peroxidase and TMB substrate. […]

The subject of series [3] is healthy donor T cells. The experiment in a line: EpiScreen T cell proliferative assay. It counts as cell-based, human. As to conditions: 20 donor T cell samples, days 5-8. The text has this: FIG. 21D—Summary of healthy donor T cell proliferative responses. Positive T cell responses during EpiScreen™ time course days 5-8 are shown (P). Samples inducing proliferation with SI ≥2.00 that were significant (p<0.05) were considered positive (borderline responses* SI≥1.90, p<0.05 are also shown). The frequency of positive T cell responses for proliferation are shown as a percentage at the bottom of the columns.

A short description of series [4]: Analytical size exclusion chromatography. It counts as physicochemical. A general note: SEC sorts molecules by how far they enter the pores of the column.
The subject of series [5] is laser-induced choroidal neovascularisation. The series is described as follows: Mouse model of laser-induced CNV. It counts as in vivo. As to conditions: for lesion size: C57B6 mice, intravitreal. The protocol:
The images on the left of FIG. 17A show a typical wild-type mouse retina under normal illumination (Fundus), and under fluorescence illumination, 7 days after three laser burns were administered to the retinal pigment epithelium. Fluorescence images were captured ˜60 seconds after systemic dosing with fluorescein (Early Phase FFA) and again after ˜7 minutes (Late Phase FFA). At the time of lasering, animals received intraocular injections of either control IgG (top panels) or 15C4 (lower panels). The Early Phase FFA images show the size of the lesions, and the Late Phase images show leakage of fluorescein into the retina. Lesion sizes were quantified for 15C4 at 2.5, 5 and 10 μg doses, and also Eylea at 2 and 4 μg, and the % blocking is a measure of average lesion size relative to that observed in the controls. On the far right a similar analysis was undertaken using Eylea and Magacizumab (both at 2.1 μg) alone and in combination.
Wild type C57B6 mice were anaesthetized and received intravitreal injections of various doses of either Magacizumab, Eylea, or both in combination, immediately following laser photocoagulation of the retinal pigment epithelium. After 7 days (to allow the vascular lesions to form) the mice were again anaesthetized and examined by fluorescein angiography (FFA). Early phase FFA images (taken after 90 s) show the degree of vascularization at the lesion site. Measurement of the lesion area in the early phase images permits quantification in which percentage lesion size is normalized against the IgG4 control (FIG. 18).

Entries after “also recorded” stand apart in the source; their conditions may differ.

Turning to “Avastin: anti-VEGF antibody Bevacizumab (Avastin) [reference compound]”, in series [1], the “blockade of angiogenesis (CNV)” value is listed as “no effect”.

B1: chimeric: murine 15C4 variable regions combined with human IgG4 (S241P) heavy chain and Kappa light chain constant regions (antibody, V domains shown)
VH: QVQLQQSGDEVVRPGSSVKISCKASGYTFSGYWMNWVKQRPGQGLQWIGQIYPGDGDTNYNGKFKGKATLTADKSSSTAYMQLSTLTSEDSAIYFCARSITTVVLDYWGQGTTLTVSS
VL: DIVLTQSPVSLAVSLGQRATISCRASQSVSTSGYSFMHWYQQKPGQPPKFLIKYASNLESGVPARFSGSGSGTDFTLNIHPVEEEDTATYYCQHSWEMPLTFGAGTKLELK
For B1, the “binding profile / competition for binding to human Lrg1” value in series [2] was “very similar binding profile to mouse 15C4”.

B2: Magacizumab: humanised 15C4 antibody comprising heavy chain variable regions VH5 and kappa light chain variable regions VK3 (antibody, V domains shown)
VH: QVQLVQSGAEVKKPGSSVKVSCKASGYTFSGYWMNWVRQAPGQGLEWIGQIYPGDGDTNYNGKFKGRVTITADKSTSTAYMELSSLRSEDTAVYYCARSITTVVLDYWGQGTTVTVSS
VL: DIVLTQSPDSLAVSLGERATISCRASQSVSTSGYSFMHWYQQKPGQPPKLLIKYASNLESGVPARFSGSGSGTDFTLTISSLQPEDFATYYCQHSWEMPLTFGQGTKLEIK
With B2, in series [3], the “T cell proliferative response” value is listed as “failed to elicit a proliferative response in any of the 20 donor T cell samples”. Besides, the “aggregation by analytical size exclusion chromatography” value in series [4] was “single peak and no aggregates”. Also, the lesion size result in series [5] (alone, vs IgG4 control) is given as “significant reduction in lesion size”; in series [5] (in combination with Eylea, vs control), “significant reduction in lesion size”. In series [5] (intraocular injection at lasering, FFA after 7 days), the lesion formation result is listed as “Dose-Dependent Inhibition of Lesion Formation; also recorded: inhibit lesion formation with similar efficacy to the VEGF blocker Eylea”.
